In patent US20250186597A1, “TARGETED IMMUNE ACTIVATION WITH IL-18 IMMUNOCYTOKINES” (BRIGHT PEAK THERAPEUTICS AG, priority 2023, published 2025):

Tests used:
Type in all cases: cell-based, human
[1] = tested on: parental PD-1 negative KG-1 cells; assay: IFN gamma secretion assay in parental PD-1 negative KG-1 cells (Example 11); conditions: IFNγ secretion
Description: (§1) The KG-1 cell line was used to generate a PD-1 expressing cell line and furthermore, to measure IFNγ release upon incubation with IL-18 variants and corresponding IL-18 immunocytokines.
(§2) IFNγ release was assessed in PD-1 positive (transduced) KG-1 cells, as well as in the parental PD-1 negative cells. 0.5×10^5 cells were seeded into a 96-well U-bottom plate in culture media (RPMI, 10% FBS, 1% L-Glutamine) and stimulated with IL-18 variants/ICs for 20-24 h. The test items were diluted to 100 nM in culture medium, followed by 7 10-fold serial dilutions. The lowest concentration assessed was […]. After incubation, IFNγ release was measured using the LEGENDplex custom human mix and match KIT (Biolegend LEGENDplex™ Human IFN-γ Capture Bead B5, 13X #740942, LEGENDplex™ HU Essential Immune Response Panel Detection Abs, #740931, LEGENDplex™ Buffer Set A #740368). To this end, cell culture supernatant was collected and diluted 1:1 with Assay Buffer. Fluorescence measurements were done with a Quanteon Flow Cytometer from Acea Biosciences. For analysis, MFI values (median fluorescence intensity) were exported and plotted against concentrations used. The EC50 values (half maximal effective concentration) were calculated based on a variable slope and four parameter analysis using GraphPad PRISM software version 9.

[2] = tested on: PD-1positive transduced NK-92 cells; assay: IFN gamma secretion assay in PD-1 positive transduced NK-92 cells (Example 17)
Description: To show selectivity of the anti-PD1-IL18 immunocytokine (IC) for PD-1 positive cells, the NK-92 cell line was used to generate a PD-1 expressing cell line and furthermore, to measure IFN[…] release upon incubation with IL-18 variants and ICs.
On the day of experiment, parental PD-1negative and PD-1positive transduced cells were harvested and washed with PBS 1× and resuspended in medium (w/o IL-2) containing 1 ng/ml of recombinant human Interleukin-12 (SinoBiologicals, Cat #CT011-H08H). After counting, cells were seeded at 100 000 cells/well in a 384 well culture plate and incubated at 37° C./5% CO2. When indicated, cells were preincubated with anti-PD-1 antibody LZM-009 at 17 uM during 30 min at 37° C. […] The lowest concentration assessed was 0.8 fM.
(§3) After 16-20 h incubation at 37° C./5% CO2, 5 μl of supernatant were carefully transferred to a 384 microwell OptiPlate (Perkin Elmer; Cat #6007270) and Interferon-gamma (IFNγ) levels were measured using the Human IFNγ AlphaLISA Assay Kit (Perkin Elmer, Cat #AL217C). […] AlphaLISA signal was then measured on an Enspire plate reader (Perkin Elmer) using 680 and 615 nm as excitation and emission wavelengths respectively. Half maximal effective concentration (EC50) was calculated based on a variable slope, four parameter analysis using GraphPad PRISM software.

[3] = tested on: PD-1positive transduced NK-92 cells; assay: IL-18BP mediated inhibition of IFN gamma secretion in PD-1 positive transduced NK-92 cells (Example 18)
Description: To characterize the resistance of anti-PD1-IL18 immunocytokines (IC) on PD-1 positive cells, the NK-92 cell line was used to generate a PD-1 expressing cell line and furthermore, to measure the inhibition of IFN[…] release upon incubation with IL-18 variants and ICs in the presence of increasing quantities of human IL-18BP.
On the day of experiment, parental PD-1^negative and PD-1^positive transduced cells were harvested and washed with PBS 1× and resuspended in medium (w/o IL-2) containing 1 ng/ml of recombinant human Interleukin-12 (SinoBiologicals, Cat #CT011-H08H). After counting, cells were seeded at 100 000 cells/well in a 384 well culture plate and incubated at 37° C./5% CO2. When indicated, cells were preincubated with anti-PD-1 antibody LZM-009 at 17 uM during 30 min at 37° C. […]
as §3, with “OptiIPlate” for “OptiPlate”, “levels” for “levels were”, “inhibitory” for “effective”, “(IC50)” for “(EC50)”

[4] = tested on: PD-1 positive (transduced) KG-1 cells; assay: IFN gamma secretion assay in PD-1 transduced KG-1 cells (Example 11)
Description: as §1
PD-1 expressing cell line generation: Briefly, KG-1 cells were transduced using lentiviral particles carrying the human PD-1 gene (PDCD1 NM_005018; Origene, CAT #: RC210364L3V) at a MOI (Multiplicity of Infection) of 30. Spinfection was performed at 1260 g during 90 min at 37° C. in the presence of 5 μg/ml of Polybrene and 10 mM of HEPES in complete culture media (RPMI, 10% FBS, 1% L-Glutamine). […]
as §2, with “0.5×10^5 cells were seeded into a 96-well U-bottom plate in culture media (RPMI, 10% FBS, 1% L-Glutamine) and stimulated with IL-18 variants/ICs for 20-24 h. The test items were diluted to 100 nM in culture medium, followed by 7 10-fold serial dilutions.” left out, “To this end, cell culture supernatant was collected and diluted 1:1 with Assay Buffer.” left out

EC50 ([2]; IFNγ secretion): 0.0028 nM
PD-1^neg/PD-1^pos EC50 ratio ([2]; NK-92 cells): 0.9
IC50 ([3]; IL-18BP-mediated inhibition of IFNγ secretion, IL-18 analyte 1 nM): 80.3 nM
PD-1^pos/PD-1^neg IC50 ratio ([3]; NK-92 cells): 1.0
EC50 ([4]; IFNγ secretion, PD-1 transduced KG-1): 0.008 nM
PD-1^neg/PD-1^pos EC50 ratio ([4]; KG-1 cells): 1.336
B1: SEQ ID NO: 30: IL-18 polypeptide: E6K, V11I, C38A, K53A, T63A, C76A, C127A (protein)
chain: YFGKLKSKLSIIRNLNDQVLFIDQGNRPLFEDMTDSDARDNAPRTIFIISMYADSQPRGMAVAISVKCEKISTLSAENKIISFKEMNPPDNIKDTKSDIIFFQRSVPGHDNKMQFESSSYEGYFLAAEKERDLFKLILKKEDELGDRSIMFTVQNED
EC50 [1]: 0.012 nM
